Earlier results, collected in article PMC12730246.

Biological target: TKS4 peptide (Homo sapiens) (UniProt A1X283)

Kd: 12 µM
Substance: TKS4 tandem SH3 tandem SH3 (from UniProt A1X283)
